Data: the Immune Epitope Database (IEDB)

Key:
HLA-B*53:01 = assay: IEDB peptide-MHC binding, purified MHC/competitive/radioactivity; filed as Kd, often an IC50 or EC50 that approximates it; ≥ and ≤ were set here for values at or beyond the usual limits of such assays
HLA-B*58:01 = assay: as above
HLA-B*15:01 [1] = assay: as above
HLA-A*30:02 = assay: as above; conditions: source organism: Dengue virus 1 Brazil/97-11/1997
HLA-A*11:01 [2] = assay: IEDB peptide-MHC binding, purified MHC/competitive/fluorescence; ≥ and ≤ were set here for values at or beyond the usual limits of such assays
HLA-B*15:03 = assay: IEDB peptide-MHC binding, purified MHC/competitive/radioactivity; filed as Kd, often an IC50 or EC50 that approximates it; ≥ and ≤ were set here for values at or beyond the usual limits of such assays
HLA-A*32:01 = assay: as above
HLA-A*31:01 = assay: IEDB peptide-MHC binding, purified MHC/competitive/fluorescence; filed as Kd, often an IC50 or EC50 that approximates it; ≥ and ≤ were set here for values at or beyond the usual limits of such assays
HLA-A*03:01 [3] = assay: as above
HLA-A*26:01 = assay: as above
HLA-B*15:01 [4] = assay: as above; conditions: source organism: Bacillus anthracis str. A0488
HLA-A*03:01 [5] = assay: IEDB peptide-MHC binding, purified MHC/direct/fluorescence; filed as Kd, often an IC50 or EC50 that approximates it; ≥ and ≤ were set here for values at or beyond the usual limits of such assays
HLA-A*11:01 [6] = assay: as above
HLA-B*08:01 = assay: IEDB peptide-MHC binding, purified MHC/competitive/radioactivity; filed as Kd, often an IC50 or EC50 that approximates it; ≥ and ≤ were set here for values at or beyond the usual limits of such assays
HLA-A*30:01 = assay: as above; conditions: source organism: Vaccinia virus WR
HLA-B*51:01 = assay: IEDB peptide-MHC binding, purified MHC/competitive/fluorescence; filed as Kd, often an IC50 or EC50 that approximates it; ≥ and ≤ were set here for values at or beyond the usual limits of such assays; conditions: source organism: Yersinia pestis Nepal516
HLA-A*02:01 = assay: IEDB peptide-MHC binding, purified MHC/competitive/fluorescence; ≥ and ≤ were set here for values at or beyond the usual limits of such assays; conditions: source organism: Vaccinia virus WR
HLA-A*24:02 = assay: as above; conditions: source organism: Vaccinia virus WR
[7] = source organism: Dengue virus 1 Brazil/97-11/1997
[8] = source organism: Vaccinia virus WR
[9] = source organism: Vaccinia virus Copenhagen
[10] = source organism: Escherichia coli 536
[11] = source organism: Mycobacterium tuberculosis
[12] = source organism: West Nile virus
[13] = source organism: Dengue virus 4 Philippines/H241/1956

FVTNEVHTW
Kd (HLA-B*53:01; [7]): 61.2 nM
Kd (HLA-B*58:01; [7]): 29.9 nM

TMAHRKPTY
Kd (HLA-B*15:01 [1]; [7]): 144 nM
Kd (HLA-A*30:02): 2060 nM

LLCKLSCAV
Kd (HLA-B*15:01 [1]; [8]): 416 nM

AADEPPLVR
IC50 (HLA-A*11:01 [2]; source organism: Vaccinia virus): ≥ 142000 nM

SLNTSTLGF
Kd (HLA-B*15:03; [9]): 13.1 nM
Kd (HLA-B*15:01 [1]; [9]): 1.67 nM
Kd (HLA-A*32:01; [9]): 416 nM

VTVVAVPLR
Kd (HLA-A*31:01; [10]): 107 nM
Kd (HLA-A*03:01 [3]; [10]): ≥ 20000 nM

NTIRNAASF
Kd (HLA-A*26:01; source organism: Bacillus thuringiensis serovar israelensis ATCC 35646): 73.5 nM

DVADLFPAQ
Kd (HLA-A*26:01; source organism: Mammarenavirus lassaense): 1780 nM

VLQSAANMY
Kd (HLA-B*15:01 [4]): 67.5 nM

RSADGSPPY
Kd (HLA-A*31:01; source organism: Mycobacterium tuberculosis variant bovis BCG str. Pasteur 1173P2): ≥ 20000 nM
Kd (HLA-A*03:01 [5]; [11]): 2500 nM
Kd (HLA-A*11:01 [6]; [11]): 25.7 nM

WASVKKDLIS
Kd (HLA-B*58:01; [7]): 81.3 nM

FMASPENVI
Kd (HLA-B*15:03; [8]): 6.38 nM

KMYACKNDM
Kd (HLA-B*15:03; [8]): 42.9 nM

YLHYYRIIR
Kd (HLA-A*31:01; source organism: Mycobacterium tuberculosis H37Rv): 245 nM
Kd (HLA-A*03:01 [5]; [11]): ≥ 20000 nM

SPVMSGNSY
Kd (HLA-B*15:03; [8]): 363 nM

SSMKGENVF
Kd (HLA-B*15:03; [8]): 47 nM

GVFYRPLHF
Kd (HLA-B*15:01 [1]; [8]): 5.54 nM

RLYSIFLIF
Kd (HLA-B*15:03; [9]): 0.158 nM
Kd (HLA-B*15:01 [1]; [9]): 3.35 nM
Kd (HLA-B*08:01; [9]): 15700 nM
Kd (HLA-A*32:01; [9]): 6.87 nM

FQSMHFTDM
Kd (HLA-B*15:03; [8]): 5.12 nM
Kd (HLA-B*08:01; [8]): 84.4 nM

LIRPKILSM
Kd (HLA-B*15:01 [1]; [8]): 10.4 nM
Kd (HLA-B*08:01; [8]): 0.548 nM

VLALLAFFR
Kd (HLA-A*31:01; [12]): 1080 nM
Kd (HLA-A*03:01 [3]; [12]): 160 nM

RSQVGVGVF
Kd (HLA-B*15:01 [1]; [7]): 26 nM

LLSRFFNMI
Kd (HLA-B*15:03; [8]): 821 nM
Kd (HLA-B*08:01; [8]): 1640 nM
Kd (HLA-A*32:01; [8]): 714 nM

KMTRVFNKF
Kd (HLA-A*30:01): 15100 nM
Kd (HLA-B*15:03; [8]): 0.431 nM
Kd (HLA-B*15:01 [1]; [8]): 7560 nM
Kd (HLA-B*08:01; [8]): 10600 nM
Kd (HLA-A*32:01; [8]): 10600 nM

LPFVWAPMV
Kd (HLA-B*51:01): 39.9 nM

GTSGSPIVDK
IC50 (HLA-A*11:01 [2]; [12]): 212 nM

LLKICIKYF
Kd (HLA-B*15:01 [1]; [8]): 5230 nM

WVAEIQPQW
Kd (HLA-B*53:01; [13]): 6.52 nM
Kd (HLA-B*58:01; [13]): 57.6 nM

VIGFLALAK
Kd (HLA-A*31:01; source organism: Orthohantavirus dobravaense): ≥ 20000 nM
Kd (HLA-A*03:01 [5]; source organism: Amur virus): 232 nM
Kd (HLA-A*11:01 [6]; source organism: Amur virus): 12.6 nM

FYTRVLKPS
IC50 (HLA-A*02:01): ≥ 110000 nM
IC50 (HLA-A*11:01 [2]; [8]): ≥ 179000 nM
IC50 (HLA-A*24:02): 7110 nM

ISTKLSCHY
Kd (HLA-B*15:01 [1]; [8]): 17.5 nM

YLFNAIETM
Kd (HLA-B*15:01 [1]; [8]): 1.41 nM
